The values below come from paper PMC2783235.

In assay [1] the target is S292C (single-Cys mutant of FT-HT-Xa) (S. cerevisiae) (UniProt D6VTK4). Put plainly: cross-linking.
For assay [2] the target is unchanged. Put plainly: cross-linking. This is another data set of the same source.
Assay [3] has the same target. In words: SDS-PAGE and western blot of membranes.
Assay [4] has the same target. Put plainly: cross-linking. This is another data set of the same source.
The target in assay [5] is T65C (single-Cys mutant of FT-HT-Xa) (S. cerevisiae) (UniProt D6VTK4). In words: cross-linking.
Assay [6] has the same target. Put plainly: cross-linking. This is another data set of the same source.
The target is the same in assay [7]. In words: SDS-PAGE and western blot of membranes.
Assay [8] shares this target. In words: cross-linking. This is another data set of the same source.
For assay [9], the target named is L64C (single-Cys mutant of FT-HT-Xa) (S. cerevisiae) (UniProt D6VTK4). Put plainly: cross-linking.
Assay [10] has the same target. In words: cross-linking. This is another data set of the same source.
For assay [11] the target is unchanged. In words: SDS-PAGE and western blot of membranes.
For assay [12] the target is unchanged. Put plainly: cross-linking. The source holds these as a separate data set.
Assay [13] has as its target A296C (single-Cys mutant of FT-HT-Xa) (S. cerevisiae) (UniProt D6VTK4). Put plainly: cross-linking.
For assay [14] the target is unchanged. In words: cross-linking. The source holds these as a separate data set.
Assay [15] shares this target. In words: SDS-PAGE and western blot of membranes.
Assay [16] shares this target. In words: cross-linking. The source holds these as a separate data set.
The target of assay [17] is W295C (single-Cys mutant of FT-HT-Xa) (S. cerevisiae) (UniProt D6VTK4). In words: cross-linking.
Assay [18] shares this target. In words: cross-linking. The source holds these as a separate data set.
For assay [19] the target is unchanged. Put plainly: SDS-PAGE and western blot of membranes.
For assay [20] the target is unchanged. Put plainly: cross-linking. This is another data set of the same source.
Assay [21] addresses M294C (single-Cys mutant of FT-HT-Xa) (S. cerevisiae) (UniProt D6VTK4). In words: cross-linking.
Assay [22] shares this target. In words: cross-linking. The source holds these as a separate data set.
Assay [23] has the same target. Put plainly: SDS-PAGE and western blot of membranes.
Assay [24] shares this target. Put plainly: cross-linking. The source holds these as a separate data set.
The target of assay [25] is L289C (single-Cys mutant of FT-HT-Xa) (S. cerevisiae) (UniProt D6VTK4). Put plainly: cross-linking.
For assay [26] the target is unchanged. In words: cross-linking. This is another data set of the same source.
Assay [27] has the same target. Put plainly: SDS-PAGE and western blot of membranes.
The target is the same in assay [28]. In words: cross-linking. The source holds these as a separate data set.
In assay [29] the target is S293C (single-Cys mutant of FT-HT-Xa) (S. cerevisiae) (UniProt D6VTK4). Put plainly: cross-linking.
The target is the same in assay [30]. In words: cross-linking. The source holds these as a separate data set.
Assay [31] shares this target. In words: SDS-PAGE and western blot of membranes.
Assay [32] shares this target. Put plainly: cross-linking. The source holds these as a separate data set.
The target of assay [33] is L291C (single-Cys mutant of FT-HT-Xa) (S. cerevisiae) (UniProt D6VTK4). Put plainly: cross-linking.
For assay [34] the target is unchanged. In words: cross-linking. The source holds these as a separate data set.
Assay [35] has the same target. In words: SDS-PAGE and western blot of membranes.
Assay [36] has the same target. Put plainly: cross-linking. This is another data set of the same source.

As for “S292C (single-Cys mutant of FT-HT-Xa) (from UniProt D6VTK4 1-431) (receptor)”, the percent dimer was 75.5% in assay [1], 65.9% in assay [2], 30.2% in assay [3] and 82.3% in assay [4].

“T65C (single-Cys mutant of FT-HT-Xa) (from UniProt D6VTK4 1-431) (receptor)”: the percent dimer in [5] worked out at 15.9%; in assay [6] it was 12.8%; in [7], 16.2%; in assay [8] it was 14.4%.

Consider “L64C (single-Cys mutant of FT-HT-Xa) (from UniProt D6VTK4 1-431) (receptor)”, for which the percent dimer in assay [9] came out at 14.6%; in assay [10], 13.6%; in assay [11], 15.8%; in assay [12] it was 11.3%.

As to “A296C (single-Cys mutant of FT-HT-Xa) (from UniProt D6VTK4 1-431) (receptor)”, the percent dimer in [13] was found to be 73.6%; in assay [14], 82.1%; in assay [15], 14.8%; in [16], 91.1%.

As for “W295C (single-Cys mutant of FT-HT-Xa) (from UniProt D6VTK4 1-431) (receptor)”, the percent dimer in assay [17] was determined as 76.2%; in [18], 86.3%; in assay [19], 15.7%; in assay [20], 95.2%.

As for “M294C (single-Cys mutant of FT-HT-Xa) (from UniProt D6VTK4 1-431) (receptor)”, the percent dimer in assay [21] was 57.8%; in assay [22] it was 50.8%; in [23] it was 27%; in assay [24] it was 75.6%.

For “L289C (single-Cys mutant of FT-HT-Xa) (from UniProt D6VTK4 1-431) (receptor)”, the percent dimer in [25] amounted to 50.2%; in assay [26], 40.9%; in assay [27] it was 26.8%; in assay [28] it was 61%.

Regarding “S293C (single-Cys mutant of FT-HT-Xa) (from UniProt D6VTK4 1-431) (receptor)”, the percent dimer in [29] was found to be 38.5%; in [30], 44%; in assay [31], 21.1%; in assay [32] it was 70.2%.

In the case of “L291C (single-Cys mutant of FT-HT-Xa) (from UniProt D6VTK4 1-431) (receptor)”, the percent dimer worked out at 52% in assay [33], 44.5% in [34], 31.8% in [35] and 66.4% in assay [36].
